Assay results as given in US20230125550A1 (ARCELLX, published 2023).

T1: AFP p26 (human, UniProt P02771 381-609)
T1 construct: The construct used is not described
T1 sequence: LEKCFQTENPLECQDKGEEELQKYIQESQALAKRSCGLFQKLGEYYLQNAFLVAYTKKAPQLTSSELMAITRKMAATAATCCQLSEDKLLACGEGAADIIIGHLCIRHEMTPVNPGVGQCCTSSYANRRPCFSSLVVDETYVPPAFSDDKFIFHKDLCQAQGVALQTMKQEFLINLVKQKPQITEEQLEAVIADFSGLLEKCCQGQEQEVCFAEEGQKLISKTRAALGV


Molecular target: T1, AFP p26
Assay: phage ELISA, A450 target/A450 IgG1-Fc
Method in brief: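 Using VCSM13 helper phage, phage were rescued in 96-well format from single phagemid colonies taken from panning output. Wells were coated with 1.3 microg/ml goat anti-human IgG1-Fc antibody and captured 5 nM recombinant human target or IgG1-Fc before 50 microl of 5×-diluted phage were added, with binding read at 450 nm via HRP-conjugated anti-M13 antibody. Each clone's ELISA ratio is its target-to-IgG1-Fc absorbance, averaged across all screened wells with that clone.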

| ELISA_avg [ratio] | Binder |
| --- | --- |
| 22.9 | SEQ ID NO 811 (designed binder) MGSWHEFYDRLYAIWDRLDALGGSEAELAAFEKEIAAFESELQAYKGKGNPEVEGLRNAAAVIRIFLQAYRHN |
| 25.3 | SEQ ID NO 790 (designed binder) MGSWAEFSDRLNAIDQRLWALGGSEAELAAFEKEIAAFESELQAYKGKGNPEVEILREHAAEIRKFLQAYRHN |
| 33.4 | SEQ ID NO 791 (designed binder) MGSWMEFNHRLQAIDGRLWALGGSEAELAAFEKEIAAFESELQAYKGKGNPEVEMLREHAAAIRAFLQAYRHN |
| 8 | SEQ ID NO 819 (designed binder) MGSWHHFKYFLADIKSILEALGGSEAELAIFEVQIAYFEDLLQSYKGKGNPEVEALRKEAAAIRDELQAYRHN |
| 20.1 | SEQ ID NO 817 (designed binder) MGSWYEFDHRLMAISFRLVALGGSEAELAAFEKEIAAFESELQAYKGKGNPEVETLRRRAANIRHLLQAYRHN |
| 29.7 | SEQ ID NO 789 (designed binder) MGSWTEFYQRLDAIDTRLWALGGSEAELAAFEKEIAAFESELQAYKGKGNPEVEGLRQQAAQIRAWLQAYRHN |
| 26.9 | SEQ ID NO 806 (designed binder) MGSWHEFWVRLEAIESRLFALGGSEAELAAFEKEIAAFESELQAYKGKGNPEVESLRVQAAHIRSWLQAYRHN |
| 31.9 | SEQ ID NO 805 (designed binder) MGSWYEFYDRLDAIEDRLFALGGSEAELAAFEKEIAAFESELQAYKGKGNPEVESLRDQAAYIRTWLQAYRHN |
| 26 | SEQ ID NO 795 (designed binder) MGSWYEFSHRLEAIEDRLFALGGSEAELAAFEKEIAAFESELQAYKGKGNPEVEPLREHAAYIRHWLQAYRHN |
| 30.8 | SEQ ID NO 792 (designed binder) MGSWYEFYKRLEAIDNRLYALGGSEAELAAFEKEIAAFESELQAYKGKGNPEVEYLREHAAAIRHWLQAYRHN |
| 11.7 | SEQ ID NO 799 (designed binder) MGSWVEFVTRLEAIEDRLFALGGSEAELAAFEKEIAAFESELQAYKGKGNPEVEHLRAHAAHIRHWLQAYRHN |
| 28.5 | SEQ ID NO 807 (designed binder) MGSWVEFYHRLEAIEQRLMALGGSEAELAAFEKEIAAFESELQAYKGKGNPEVESLREQAAAIRSWLQAYRHN |
| 29.6 | SEQ ID NO 793 (designed binder) MGSWYEFYYRLEAIDNRLIALGGSEAELAAFEKEIAAFESELQAYKGKGNPEVEVLREHAAKIREWLQAYRHN |
| 33.1 | SEQ ID NO 794 (designed binder) MGSWYEFVSRLEAIDDRLYALGGSEAELAAFEKEIAAFESELQAYKGKGNPEVEMLRQHAAAIRHWLQAYRHN |
| 28.7 | SEQ ID NO 808 (designed binder) MGSWVEFYERLNAIEYRLEALGGSEAELAAFEKEIAAFESELQAYKGKGNPEVESLREHAAYIRQWLQAYRHN |
| 20.3 | SEQ ID NO 796 (designed binder) MGSWFEFFERLAAIEDRLWALGGSEAELAAFEKEIAAFESELQAYKGKGNPEVESLRVHAAAIRAFLQAYRHN |

| ELISA_avg [ratio] | Binder |
| --- | --- |
| 30.1 | SEQ ID NO 800 (designed binder) MGSWYEFVIRLDAIEDRLFALGGSEAELAAFEKEIAAFESELQAYKGKGNPEVEHLRVHAAHIRVWLQAYRHN |
| 23.8 | SEQ ID NO 801 (designed binder) MGSWVEFVERLDAIEFRLFALGGSEAELAAFEKEIAAFESELQAYKGKGNPEVEKLRNHAAHIRSWLQAYRHN |
| 27.4 | SEQ ID NO 804 (designed binder) MGSWYEFYLRLSAIEDRLFALGGSEAELAAFEKEIAAFESELQAYKGKGNPEVESLRVQAAHIRTWLQAYRHN |
| 18.3 | SEQ ID NO 797 (designed binder) MGSWIEFKYRLDAIEWRLEALGGSEAELAAFEKEIAAFESELQAYKGKGNPEVESLRIHAAAIRTWLQAYRHN |
| 19.4 | SEQ ID NO 798 (designed binder) MGSWYEFMYRLDAIEYRLFALGGSEAELAAFEKEIAAFESELQAYKGKGNPEVESLRIHAAMIREWLQAYRHN |
| 30.8 | SEQ ID NO 803 (designed binder) MGSWSEFYYRLAAIESRLFALGGSEAELAAFEKEIAAFESELQAYKGKGNPEVERLREHAAHIRRWLQAYRHN |
| 16.9 | SEQ ID NO 802 (designed binder) MGSWSEFVHRLDAIEVRLFALGGSEAELAAFEKEIAAFESELQAYKGKGNPEVEELRYHAAKIRSWLQAYRHN |
| 20.2 | SEQ ID NO 818 (designed binder) MGSWSIFKYHLADIKLLLEALGGSEAELAYFEFLIADFEFTLQDYKGKGNPEVEALRKEAAAIRDELQAYRHN |
| 13.3 | SEQ ID NO 820 (designed binder) MGSWLYFKYNLAVIKHWLEALGGSEAELAIFEMSIADFEYELQWYKGKGNPEVEALRKEAAAIRDELQAYRHN |
| 25.4 | SEQ ID NO 810 (designed binder) MGSWSEFTDRLFAIEDRLLALGGSEAELAAFEKEIAAFESELQAYKGKGNPEVEDLRMHAASIRLWLQAYRHN |
| 20 | SEQ ID NO 809 (designed binder) MGSWVEFYHRLDAIFDRLDALGGSEAELAAFEKEIAAFESELQAYKGKGNPEVEELRANAAGIRSWLQAYRHN |
| 15.2 | SEQ ID NO 812 (designed binder) MGSWFEFSNRLYAIWHRLTALGGSEAELAAFEKEIAAFESELQAYKGKGNPEVESLRTQAAFIRILLQAYRHN |
| 10.9 | SEQ ID NO 814 (designed binder) MGSWFEFEDRLFAIWTRLEALGGSEAELAAFEKEIAAFESELQAYKGKGNPEVESLRQSAASIRWLLQAYRHN |
| 19 | SEQ ID NO 813 (designed binder) MGSWFEFSDRLYAIWERLDALGGSEAELAAFEKEIAAFESELQAYKGKGNPEVESLRFQAAFIRYQLQAYRHN |
| 8.21 | SEQ ID NO 815 (designed binder) MGSWHEFSERLFAIWTRLEALGGSEAELAAFEKEIAAFESELQAYKGKGNPEVEALRQSAAFIRVMLQAYRHN |
| 8.54 | SEQ ID NO 816 (designed binder) MGSWGEFTVRLYAIDRRLDALGGSEAELAAFEKEIAAFESELQAYKGKGNPEVEELRRFAAIIRAFLQAYRHN |
